What was measured:
Experiment in all cases: filter binding; 5 mM Mg2+; 25 mM Tris-HCl pH 8, 50 mM NaAc, 5 mM MgCl2, 2.5 mM beta-mercaptoethanol; protein preincubated 10 min 65 C, binding 15 min 30 C; 0.5 nM substrate (Methods); Resu
[1] = molecular target: T1, Tbar-aLhr2 WT (Thermococcus barophilus, UniProt F0LJX3 1-863); settings: protein: recombinant, tags: untagged, chain copies: 4
T1 sequence: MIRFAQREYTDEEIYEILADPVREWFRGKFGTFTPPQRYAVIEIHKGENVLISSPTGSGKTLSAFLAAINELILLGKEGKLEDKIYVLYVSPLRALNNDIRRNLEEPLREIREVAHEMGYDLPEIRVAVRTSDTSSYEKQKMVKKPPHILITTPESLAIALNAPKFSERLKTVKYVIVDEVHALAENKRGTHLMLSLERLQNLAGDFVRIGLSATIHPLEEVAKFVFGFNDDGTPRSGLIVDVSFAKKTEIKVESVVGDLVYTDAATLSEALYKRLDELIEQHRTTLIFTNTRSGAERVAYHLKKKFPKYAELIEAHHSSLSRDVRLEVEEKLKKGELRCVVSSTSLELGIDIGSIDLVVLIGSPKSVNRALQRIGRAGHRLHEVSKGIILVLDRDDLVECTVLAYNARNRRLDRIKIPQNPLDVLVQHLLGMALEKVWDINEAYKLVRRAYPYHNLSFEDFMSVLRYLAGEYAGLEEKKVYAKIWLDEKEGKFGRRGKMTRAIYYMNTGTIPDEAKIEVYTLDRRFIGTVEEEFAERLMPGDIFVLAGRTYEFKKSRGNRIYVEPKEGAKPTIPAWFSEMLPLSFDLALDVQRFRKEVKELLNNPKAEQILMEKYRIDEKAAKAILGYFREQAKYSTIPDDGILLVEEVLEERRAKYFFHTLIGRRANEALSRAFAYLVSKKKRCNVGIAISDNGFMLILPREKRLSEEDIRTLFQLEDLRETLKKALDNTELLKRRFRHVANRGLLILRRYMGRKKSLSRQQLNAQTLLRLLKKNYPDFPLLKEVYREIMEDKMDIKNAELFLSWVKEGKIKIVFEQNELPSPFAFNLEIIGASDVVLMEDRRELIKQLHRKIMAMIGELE

[2] = molecular target: T2, Paby-Hel308 (Pyrococcus abyssi, UniProt Q9V0A9 1-715); settings: protein: recombinant, tags: untagged
T2 sequence: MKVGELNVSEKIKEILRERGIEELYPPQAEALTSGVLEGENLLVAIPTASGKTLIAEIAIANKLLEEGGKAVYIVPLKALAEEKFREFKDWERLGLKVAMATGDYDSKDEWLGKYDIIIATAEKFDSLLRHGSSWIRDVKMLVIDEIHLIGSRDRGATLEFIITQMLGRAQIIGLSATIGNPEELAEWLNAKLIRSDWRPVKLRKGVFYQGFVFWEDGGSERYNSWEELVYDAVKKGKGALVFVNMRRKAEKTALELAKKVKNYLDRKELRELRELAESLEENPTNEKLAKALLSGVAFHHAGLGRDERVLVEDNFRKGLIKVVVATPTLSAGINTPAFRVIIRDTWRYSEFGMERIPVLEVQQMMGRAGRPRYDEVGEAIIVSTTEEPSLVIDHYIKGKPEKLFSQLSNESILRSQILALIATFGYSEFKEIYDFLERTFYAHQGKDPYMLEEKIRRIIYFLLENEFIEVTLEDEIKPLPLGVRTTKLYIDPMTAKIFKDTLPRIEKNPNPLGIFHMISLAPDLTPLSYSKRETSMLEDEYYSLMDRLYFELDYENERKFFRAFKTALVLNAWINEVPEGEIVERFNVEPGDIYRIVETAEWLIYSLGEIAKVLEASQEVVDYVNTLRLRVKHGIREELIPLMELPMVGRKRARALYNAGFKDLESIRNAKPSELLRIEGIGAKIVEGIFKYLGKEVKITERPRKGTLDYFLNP

[3] = molecular target: T3, Tbar-aLhr2-ΔDom4 (Thermococcus barophilus, UniProt F0LJX3 1-513); settings: protein: recombinant; tags: untagged; label: 5'-32P; single strand
T3 sequence: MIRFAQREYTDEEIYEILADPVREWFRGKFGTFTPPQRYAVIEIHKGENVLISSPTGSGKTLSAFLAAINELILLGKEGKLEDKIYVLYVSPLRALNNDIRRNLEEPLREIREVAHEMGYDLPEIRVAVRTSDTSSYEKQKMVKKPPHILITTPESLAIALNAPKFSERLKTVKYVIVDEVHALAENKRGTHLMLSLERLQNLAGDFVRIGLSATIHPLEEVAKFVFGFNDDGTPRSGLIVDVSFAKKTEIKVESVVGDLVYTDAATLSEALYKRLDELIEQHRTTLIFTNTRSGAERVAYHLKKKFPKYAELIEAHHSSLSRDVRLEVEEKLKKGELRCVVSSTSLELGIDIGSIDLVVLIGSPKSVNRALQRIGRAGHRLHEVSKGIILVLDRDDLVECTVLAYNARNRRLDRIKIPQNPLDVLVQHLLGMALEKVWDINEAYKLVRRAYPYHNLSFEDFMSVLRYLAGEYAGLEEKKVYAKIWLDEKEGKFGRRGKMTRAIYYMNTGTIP

[4] = molecular target: T4, Tbar-aLhr2-Dom4 (Thermococcus barophilus, UniProt F0LJX3 514-863); settings: protein: recombinant; tags: untagged; label: 5'-32P; single strand
T4 sequence: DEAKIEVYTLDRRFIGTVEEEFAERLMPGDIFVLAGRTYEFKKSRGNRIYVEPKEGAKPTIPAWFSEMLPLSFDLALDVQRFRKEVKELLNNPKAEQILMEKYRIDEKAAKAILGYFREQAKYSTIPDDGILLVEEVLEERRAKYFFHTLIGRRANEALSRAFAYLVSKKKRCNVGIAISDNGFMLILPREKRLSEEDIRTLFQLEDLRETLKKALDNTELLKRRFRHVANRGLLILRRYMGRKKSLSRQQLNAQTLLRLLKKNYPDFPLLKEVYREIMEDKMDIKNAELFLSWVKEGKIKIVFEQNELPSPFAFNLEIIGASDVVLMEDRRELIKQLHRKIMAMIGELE

[5] = label: 5'-32P on DNA31, 3' overhang 28 nt

B1: 3'DNA59:DNA31 (dsDNA)
DNA 1: GACGCTGCCGAATTCTACCAGTGCCTTGCTAGGACATCTTTGCCCACCTGCAGGTTCAC
DNA 2: TAGCAAGGCACTGGTAGAATTCGGCAGCGTC
B1 was tested. Which Kd [1, 5] did it give?
Its Kd is 41 ± 2 nM.

And the Kd [2, 5]?
Its Kd is 23 ± 1 nM.

Which results are given for ATCGATAGTCTCTAGACAGCATGTCCTAGCAAGCCAGAATTCGGCAGCGT (ssDNA) [DNA50]?
Kd [3]: 54 ± 1 nM; Kd ([1]; label: 5'-32P, single strand): 39 ± 1 nM; Kd [4]: 162 ± 5 nM; Kd ([2]; label: 5'-32P, single strand): 32 ± 2 nM

Which Kd [3] does the source give for AUCGAUAGUCUCUAGACAGCAUGUCCUAGCAAGCCAGAAUUCGGCAGCGU (ssRNA) [RNA50] here?
Its Kd is 69 ± 1 nM.

And the Kd ([1]; label: 5'-32P, single strand)?
Its Kd is 41 ± 1 nM.

What about the Kd [4] of the same binder?
Its Kd is 161 ± 5 nM.

What about the Kd ([2]; label: 5'-32P, single strand) of the same binder?
The Kd was 38 ± 1 nM.

B2: 3'RNA50:RNA26 (dsRNA)
RNA 1: AUCGAUAGUCUCUAGACAGCAUGUCCUAGCAAGCCAGAAUUCGGCAGCGU
RNA 2: GGACAUGCUGUCUAGAGACUAUCGAU
For B2, which Kd ([1]; label: 5'-32P on RNA26, 3' overhang 24 nt) is on record?
Its Kd is 39 ± 2 nM.

How did the Kd [3] turn out when GGACATGCTGTCTAGAGACTATCGAT (ssDNA) [DNA26] was run?
The Kd was 211 ± 9 nM.

What about the Kd ([1]; label: 5'-32P, single strand) of the same binder?
Its Kd is 58 ± 2 nM.

And the Kd [4]?
The Kd was 277 ± 16 nM.

Which Kd [3] does the source give for ACGCUGCCGAAUUCUGGCUUGCUAGG (ssRNA) [RNA26] here?
Its Kd is 150 ± 1 nM.

What about the Kd ([1]; label: 5'-32P, single strand) of the same binder?
The Kd was 80 ± 2 nM.

What about the Kd [4] of the same binder?
The Kd was 241 ± 17 nM.

— publication PMC8301817, “Phylogenetic Diversity of Lhr Proteins and Biochemical Activities of the Thermococcales aLhr2 DNA/RNA Helicase”
